Test results reported in the RNAGym collection of RNA variant scans (doi:10.1073/pnas.2313332121).

B1: TPR t1 (parent)
chain: GACCAAUCUGCCCUCAGAGCUCGAGAACAUCUUCGGAUGCAGAGGAGGCAGGCUUCGGUGGCGCGAUAGCGCCAACGUCCUCAACCUCCAAUGCAUCCCACCACAUGAUGAUGCCUGAAGAGCCUUGGUUUUUUG

Variants of: B1
Assay: polymerase ribozyme fitness, log enrichment relative to wild type (log ratio); higher = more active; in vitro selection for triplet polymerase activity
How it was run: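 In triplicate, a single round of in vitro selection was run on each mutant library, PCR-built and transcribed, covering one subunit of a heterodimeric triplet polymerase ribozyme. Frozen incubation at −7 °C followed annealing with a biotinylated primer, partner subunit and triplets, and extended constructs were then gel-excised, streptavidin-captured and taken through RT-PCR. Fitness is the logarithm of genotype enrichment over wild-type enrichment, from inverse-variance-weighted replicate averages of Illumina-sequenced inputs and outputs. […] only genotypes with ≥10 input reads and ≥1 read per output were kept.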

Point of comparison: C40G A46U C56A U92A C114U, “polymerase ribozyme fitness (log ratio)” value -6.09. Against it:
- C40A G61C U126G — higher, -5.2
- U38C A90C — higher, -1.49
- C40G G113A — higher, -0.856
- C40U G60C G135U — higher, -1.79
- C40U A74C G120A U131C — higher, 0.155
- U38G C49G — higher, -2.14
- C40A A43U G44C G71U C82A — higher, -4.65
- U38G U54G C64U — higher, -4.46
- C40G C56U A100U C101G — higher, -2.81
- G39U G113A U132A — higher, -2.47
- G39C C101A — higher, -1.69
- C40G U92C — higher, -1.63
- C40G U92G — higher, -2.95
- C40U C98A — higher, -5
- G39C C115U G120C — higher, -1.04
- G39A C80A C98U U133A — lower, -6.34
- C40G G61A C72U U112C — higher, 1.6
- C40G G57C — higher, -1.56
- C40G A90C U106C U116G A119G U125G — higher, -3.17
- C40A C79G G93C G110A U133A — higher, -5.44
- C40A U78A C79U U109A — within 0.2 log units, -6.14
- G39U G61C U130G — higher, -2.15
- G39A U129C — higher, -0.434
- C40G G122U — higher, -0.991
- A41C A46C C72G C97U U133A — higher, -3.71
- G39U C49A C80U — higher, -3.62
- G39A C72U U78C C99U G120A U126C — higher, -2.95
- C40A G60A C85G — higher, -2.93
- C40A C79A — higher, -2.9
- U38C C53U U116A A121G — higher, 0.589
- C40G G110U — higher, -1.7
- A41C C89U — higher, -0.432
- A41C C89G — higher, -3.37
- C40A G135U — higher, -2.63
- C40A C72G U78C A121G U132A — higher, 0.388
- G39U G61U U106A — higher, -0.274
- G39U G48U — higher, -1.59
- G39C C56G A111C G128A — higher, -3.6
- G39U G61C — higher, -1.66
- C40A A74G U130C — higher, -0.804
- G39C U54A A74G — higher, -0.531
- C40G G61C G69U — higher, -2.88
- C40A G60A G113U G122C — higher, -4.23
- G39U G60A C76G — higher, -3.27
- U38G A43G — higher, -2.91
- U38C G57U G117C — higher, -5.11
- C40G C62A — higher, -1.9
- G39U A50U G60U G61A C79A — higher, -3.64
- C40A C62A A118G — higher, -2.61
- G39C C72U — higher, -1.18
- C40G A43C A111C A119G — higher, -4.45
- U38A U132C — higher, -0.329
- G39A G44U C82A A95C C115G — higher, -3.83
- G39A C123A — higher, -0.277
- C40A G93A A111C — higher, -1.04
- C40U G51C G57U C89U G120U — higher, -3.44
- C40U A100G — higher, -4.16
- C40G G60U — higher, -0.737
- G39A C124U — higher, 1.26
- C40U G71A U81C A95U — higher, -3
- U38C G57A G69U U96A — higher, -3.58
- C40A C102A G113U C124A — lower, -6.46
- C40G G47U G93U U129C U133G — higher, -2.76
- C40U G71U C115U U125G U133C — higher, -0.893
- C40G C64U — higher, -1.16
- G39U G63A — higher, -1.75
- A41C G42C G63U G127C — higher, -4.81
- C40G C114A — higher, -2.35
- G39A C49A C98A U112C — higher, -3.94
- A41C — higher, -0.956
- G39A G93A U112G C123A — higher, -3.6
- C40G G44C C73U U125G — higher, -2.93
- G39A G44C — higher, -1.34
- G39A G51U — higher, -3.49
- G39C C98A — higher, -5.08
- G39U C62A C70U — higher, -2.07
- G39A C88A — higher, -1.32
- G39U G51A A118G — higher, -4.52
- G39A G48U G71U U116A U129A — higher, -5.41
- G39U C72G C82G — higher, -2.35
- G39U U106C — higher, -0.461
- A41C C101A G120C — higher, -1.45
